Test results reported in PMC7367684, “Mechanical inhibition of isolated Vo from V/A-ATPase for proton conductance” (eLife, 2020).

T1: a subunit of the Thermus thermophilus V/A-ATPase (Thermus thermophilus, UniProt Q5SIT6 1-652)
T1 construct: a subunit (subunit I) of the V/A-ATPase of Thermus thermophilus, strain HB8; soluble arm domain asol and C-terminal hydrophobic domain aCT (membrane domain printed as A327-E637); also called asol (soluble arm domain); aCT (membrane-embedded C-terminal region)
T1 sequence: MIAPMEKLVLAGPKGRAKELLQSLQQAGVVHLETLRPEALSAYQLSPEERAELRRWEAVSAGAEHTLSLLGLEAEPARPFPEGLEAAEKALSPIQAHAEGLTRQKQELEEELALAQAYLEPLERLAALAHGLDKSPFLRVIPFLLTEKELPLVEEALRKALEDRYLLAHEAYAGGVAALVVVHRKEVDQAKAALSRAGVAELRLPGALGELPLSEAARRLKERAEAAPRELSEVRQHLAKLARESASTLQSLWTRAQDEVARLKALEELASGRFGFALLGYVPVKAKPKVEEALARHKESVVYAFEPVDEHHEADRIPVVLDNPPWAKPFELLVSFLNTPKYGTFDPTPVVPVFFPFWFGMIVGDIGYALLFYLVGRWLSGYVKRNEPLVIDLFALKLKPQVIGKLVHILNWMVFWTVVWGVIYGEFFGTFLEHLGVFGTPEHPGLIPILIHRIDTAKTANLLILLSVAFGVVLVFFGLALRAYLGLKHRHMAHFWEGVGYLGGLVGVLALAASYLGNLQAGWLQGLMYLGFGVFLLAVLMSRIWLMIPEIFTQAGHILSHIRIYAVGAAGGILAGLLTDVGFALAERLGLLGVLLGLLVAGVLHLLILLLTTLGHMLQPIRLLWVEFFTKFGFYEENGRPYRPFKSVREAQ

B1: F subunit of the Thermus thermophilus V/A-ATPase (natural protein)
chain: MAVIADPETAQGFRLAGLEGYGASSAEEAQSLLETLVERGGYALVAVDEALLPDPERAVERLMRGRDLPVLLPIAGLKEAFQGHDVEGYMRELVRKTIGFDIKL
notes: F subunit (central shaft) of the V/A-ATPase of Thermus thermophilus, strain HB8; also called subunit F; source: T. thermophilus membranes, V/A-ATPase purified (Ni-NTA by the His3 tag on the c-subunit, Resource Q), in nanodiscs
B2: d subunit of the Thermus thermophilus V/A-ATPase (natural protein)
chain: MADDFAYLNARVRVRRGTLLKESFFQEALDLSFADFLRLLSETVYGGELAGQGLPDVDRAVLRTQAKLVGDLPRLVTGEAREAVRLLLLRNDLHNLQALLRAKATGRPFEEVLLLPGTLREEVWRQAYEAQDPAGMAQVLAVPGHPLARALRAVLRETQDLARVEALLAKRFFEDVAKAAKGLDQPALRDYLALEVDAENLRTAFKLQGSGLAPDAFFLKGGRFVDRVRFARLMEGDYAVLDELSGTPFSGLSGVRDLKALERGLRCVLLKEAKKGVQDPLGVGLVLAYVKEREWEAVRLRLLARRAYFGLPRAQVEEEVVCP
notes: d subunit (subunit C) of the V/A-ATPase of Thermus thermophilus, strain HB8
B3: c subunit of the Thermus thermophilus V/A-ATPase (c12 rotor ring) (natural protein)
chain: AEEAAASGGLDRGLIAVGMGLAVGLAALGTGVAQARIGAAGVGAIAEDRSNFGTALIFLLLPETLVIFGLLIAFILNGRL
notes: c subunit (subunit K/L, proteolipid) of the V/A-ATPase of Thermus thermophilus, strain HB8; chains Y and Z of the model are named in the text; Stands as a ring of twelve copies in Vo; also called c12 ring; c-ring; not shown: His3, C-terminal, kept; copies: 12
B4: D subunit of the Thermus thermophilus V/A-ATPase (natural protein)
chain: MSQVSPTRMNLLQRRGQLRLAQKGVDLLKKKRDALVAEFFGLVREAMEARKALDQAAKEAYAALLLAQAFDGPEVVAGAALGVPPLEGVEAEVENVWGSKVPRLKATFPDGALLSPVGTPAYTLEASRAFRRYAEALIRVANTETRLKKIGEEIKKTTRRVNALEQVVIPGIRAQIRFIQQVLEQREREDTFRLKRIKGKIEAREAEEEGGRPNPQVEIGAGL
notes: D subunit (central shaft) of the V/A-ATPase of Thermus thermophilus, strain HB8; holds the short helix called screw driver helix (SDH); also called subunit D; axis subunit of the V1 domain; source: T. thermophilus membranes, V/A-ATPase purified (Ni-NTA by the His3 tag on the c-subunit, Resource Q), in nanodiscs

Tests used:
[1] = target: B4; assay: cryo-EM structure; holo V/A-ATPase (His3 tag on the c subunit) in nanodiscs (MSP1E3D1, POPC), 20 mM Tris-HCl pH 8.0, 150 mM NaCl, 2 mM MgCl2; Titan Krios, Falcon II; rotational state 1, 3.6 Å overall, 3.5 Å focused map of A3B3DFE2G2dasol; settings: both partners purified
[2] = target: T1, a subunit of the Thermus thermophilus …; assay: cryo-EM structure; isolated Vo (His3 tag on the c subunit) in nanodiscs (MSP1E3D1, DMPC by the methods), 20 mM Tris-HCl pH 8.0, 150 mM NaCl; CRYOARM200, K2 Summit; 3.9 Å; settings: both partners purified
[3] = target: the molecule itself; assay: as above
[4] = target: B2; assay: cryo-EM structure; holo V/A-ATPase (His3 tag on the c subunit) in nanodiscs (MSP1E3D1, POPC), 20 mM Tris-HCl pH 8.0, 150 mM NaCl, 2 mM MgCl2; Titan Krios, Falcon II; rotational state 1, 3.6 Å overall, 3.5 Å focused map of A3B3DFE2G2dasol; settings: both partners purified

Binder: B1
binding result [1]: binds

Binder: B2
binding result [2]: binds

Binder: B3
stoichiometry N [3]: 12

Binder: B4
binding result [4]: binds
